Measured values taken from paper PMC10435448, “A RAD51–ADP double filament structure unveils the mechanism of filament dynamics in homologous recombination”.

Biological target: hRAD51 wild-type (Homo sapiens, UniProt Q06609 1-339)
Test: cryo-EM structure (3.1 A); 1 mM ADP, 5 mM CaCl2, 2.5 mM MgCl2; ssDNA density weak and diffuse; EMSA: 35 mM Tris-HCl pH 7.5, 1 mM DTT, 10 mM MgCl2, 100 ng/ul BSA, 50 mM KCl, 2 mM ADP, 37 C 10 min, 2% agarose TAE at 4 C; cryo-EM: 35 mM Tris-HCl pH 7.5, 108
Conditions: protein: recombinant; tags: none stated (pET11, untagged purification); chain copies: 10; single strand

hRAD51 wild-type, sequence (Q06609 whole entry): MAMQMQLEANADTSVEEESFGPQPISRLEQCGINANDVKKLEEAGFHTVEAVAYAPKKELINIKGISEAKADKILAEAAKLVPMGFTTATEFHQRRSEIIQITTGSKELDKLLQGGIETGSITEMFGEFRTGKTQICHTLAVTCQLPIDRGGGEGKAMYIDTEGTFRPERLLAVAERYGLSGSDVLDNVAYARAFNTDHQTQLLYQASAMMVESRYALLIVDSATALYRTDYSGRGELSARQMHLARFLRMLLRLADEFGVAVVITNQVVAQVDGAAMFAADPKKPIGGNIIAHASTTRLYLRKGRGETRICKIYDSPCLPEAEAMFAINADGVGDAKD

B1: Oligo 1 (80 nt ssDNA), unlabeled (ssDNA)
DNA: TTATGTTCATTTTTTATATCCTTTACTTTATTTTCTCTGTTTATTCATTTACTTATTTTGTATTATCCTTATCTTATTTA
- binding result: binds
